Source: patent US20150044237A1 (CENTRE NATIONAL DE LA RECHERCHE SCIENTIFIQUE, published 2015)

Experiments:
CD28 on human cells = biological target: T1, CD28 on human cells (human, UniProt P10747 19-220); assay: inferred from inhibition of cell death by anti-CD28 blocking antibody on JKCD28high cells
T1 construct: whole, on cells; also called CD28 receptor
Method: FIG. 14: Effect of the pFasL and CD80-pFasL chimeras on the JKCD28low, JKCD28high and JKCD28delta cell lines. Panel A: membrane expression of Fas and CD28 on the three cell lines. The cells were stained with the indicated antibodies, or with an isotype-matched negative control antibody (shaded histograms) then analysed by flow cytometry. Panel B: the apoptotic activity of the pFasL and CD80-pFasL chimeras was tested against the three cell lines (JKCD28 low: empty triangles; JKCD28high: filled triangles; JKCD28delta: squares) at a range of concentrations, measured in the FasL ELISA. Cell death was estimated by the MTT viability assay. Mean and sd from three distinct experiments. Panel C: the pFasL and CD80-pFasL chimeras were used at a non-saturating concentration that triggers a suboptimal cell death. The JKCD28low and JKCD28high cell lines were pre-incubated without (no antibody) or with an isotype-matched control antibody at 10 μg/mL or with the CD28.2 clone of anti-CD28 blocking antibody at 10, 3 or 1 μg/mL. Cell death was measured using the MTT cell viability assay. Mean and sd from three distinct experiments.
To analyse this possibility, the inventors conducted experiments where CD28 was blocked using a neutralising antibody. […]

[1] = biological target: T2, Fas (CD95/APO-1) on Jurkat cells (human, UniProt P25445 26-335); assay: cell-based or functional assay
T2 sequence (looked up): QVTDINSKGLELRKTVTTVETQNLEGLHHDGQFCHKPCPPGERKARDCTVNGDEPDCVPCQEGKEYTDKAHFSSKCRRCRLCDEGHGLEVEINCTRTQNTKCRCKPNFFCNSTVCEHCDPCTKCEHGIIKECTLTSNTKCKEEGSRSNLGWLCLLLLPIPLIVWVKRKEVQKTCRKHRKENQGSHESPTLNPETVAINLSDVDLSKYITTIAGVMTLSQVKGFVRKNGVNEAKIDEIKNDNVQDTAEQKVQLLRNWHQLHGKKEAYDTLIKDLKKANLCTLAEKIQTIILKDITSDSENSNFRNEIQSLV

- C50 against pFasL, JKCD28delta cell line [1]: 10 fold increase against pFasL
- C50 against pFasL, JKCD28high cell line [1]: 2.5 fold decrease against pFasL
- C50 against pFasL, JKCD28low cell line [1]: 17 fold decrease against pFasL
B1: CD80-pFasL (other)
chain: VIHVTKEVKEVATLSCGHNVSVEELAQTRIYWQKEKKMVLTMMSGDMNIWPEYKNRTIFDITNNLSIVILALRPSDEGTYECVVLKYEKDAFKREHLAEVTLSVKADFPTPSISDFEIPTSNIRRIICSTSGGFPEPHLSWLENGEELNAINTTVSQDPETELYAVSSKLDFNMTTNHSFMCLIKYGHLRVNQTFNWNTTKQEHFPSSIPDSQTKVFPQDKVILVGSDITFCCVSQEKVLSALIGHTNCPLIHLDGENVAIKIRNISVSASSGTNVVFTTEDNIFGTVISRALQKELAELRESTSQMHTASSLEKQIGHPSPPPEKKELRKVAHLTGKSNSRSMPLEWEDTYGIVLLSGVKYKKGGLVINETGLYFVYSKVYFRGQSCNNLPLSHKVYMRNSKYPQDLVMMEGKMMSYCTTGQMWARSSYLGAVFNLTSADHLYVNVSELSLVNFEESQTFFGLYKL
notes: Polymeric, produced in HEK 293T cells; also called CD80IgFasL; CD80-IgFasL polymeric chimera
- binding result (CD28 on human cells): binds
